Test results taken from PMC4978539.

How the values were obtained:
Experiment in all cases: proximity ligation
[1] = target: HIV-1 Gag with the CA mutations Q7A/Q9A, expressed from a proviral point mutant (HIV-1)
[2] = target: HIV-1 Gag, wild type, expressed from the proviral clone pNL4-3 (HIV-1)
[3] = target: HIV-1 Gag with the CA mutation G89A, expressed from a proviral point mutant (HIV-1)
mCh-GagQ7A/Q9A (HIV-1) = target: mCh-GagQ7A/Q9A (HIV-1)
mCherry-Gag (HIV-1) = target: mCherry-Gag (HIV-1)

Chain of Cyclophilin A (P62937 whole entry): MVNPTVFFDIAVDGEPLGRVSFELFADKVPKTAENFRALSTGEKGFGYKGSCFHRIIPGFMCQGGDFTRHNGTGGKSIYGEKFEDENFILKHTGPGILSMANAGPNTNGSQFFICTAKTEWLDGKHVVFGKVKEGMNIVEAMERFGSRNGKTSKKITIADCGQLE
Chain of Ras-GAP SH3 domain-binding protein (G3BP1), endogenous (Q13283 whole entry, the tested form may be a part): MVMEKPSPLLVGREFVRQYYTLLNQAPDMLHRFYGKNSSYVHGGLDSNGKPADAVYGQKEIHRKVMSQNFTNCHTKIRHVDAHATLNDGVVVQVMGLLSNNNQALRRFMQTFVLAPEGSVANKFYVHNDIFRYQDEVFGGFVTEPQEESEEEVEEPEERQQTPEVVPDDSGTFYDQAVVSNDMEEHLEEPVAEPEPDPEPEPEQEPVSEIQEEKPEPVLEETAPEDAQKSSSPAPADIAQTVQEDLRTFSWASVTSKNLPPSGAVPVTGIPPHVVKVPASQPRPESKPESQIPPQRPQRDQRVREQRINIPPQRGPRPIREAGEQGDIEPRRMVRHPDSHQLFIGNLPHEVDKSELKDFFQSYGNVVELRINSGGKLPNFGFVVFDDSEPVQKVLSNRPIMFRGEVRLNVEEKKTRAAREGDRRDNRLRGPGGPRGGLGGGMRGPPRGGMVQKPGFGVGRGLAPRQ

Cyclophilin A (from UniProt P62937 1-165) (natural protein)
PLA spots/cell [1]: 27.4 spots/cell | PLA spots/cell [2]: 60.3 spots/cell | PLA spots/cell [3]: 18.7 spots/cell

Ras-GAP SH3 domain-binding protein (G3BP1), endogenous (from UniProt Q13283 1-466) (natural protein)
PLA spots/cell (mCh-GagQ7A/Q9A (HIV-1)): 33.8 spots/cell | PLA spots/cell (mCherry-Gag (HIV-1)): 107 spots/cell

eukaryotic elongation factor 2, endogenous (from UniProt P13639 1-858) (natural protein)
PLA spots/cell [1]: 5.1 spots/cell | PLA spots/cell [2]: 11.6 spots/cell | PLA spots/cell [3]: 3.44 spots/cell
